{"source": "patent US20220332804A1", "about": "(CSL INNOVATION, published 2022)", "assay_in_all_cases": "SPR, KD relative to WT C2;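 further: biacore SPR at 37 °C, anti-C2 mAbs captured on anti-human IgG chips with alanine or serine point mutants of C2 as analyte, KD from 1:1 fit compared with wild-type C2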", "key": {"human C2 E324A": {"molecular_target": "T1, human C2 E324A (human, UniProt P06681 21-752)", "T1 sequence": "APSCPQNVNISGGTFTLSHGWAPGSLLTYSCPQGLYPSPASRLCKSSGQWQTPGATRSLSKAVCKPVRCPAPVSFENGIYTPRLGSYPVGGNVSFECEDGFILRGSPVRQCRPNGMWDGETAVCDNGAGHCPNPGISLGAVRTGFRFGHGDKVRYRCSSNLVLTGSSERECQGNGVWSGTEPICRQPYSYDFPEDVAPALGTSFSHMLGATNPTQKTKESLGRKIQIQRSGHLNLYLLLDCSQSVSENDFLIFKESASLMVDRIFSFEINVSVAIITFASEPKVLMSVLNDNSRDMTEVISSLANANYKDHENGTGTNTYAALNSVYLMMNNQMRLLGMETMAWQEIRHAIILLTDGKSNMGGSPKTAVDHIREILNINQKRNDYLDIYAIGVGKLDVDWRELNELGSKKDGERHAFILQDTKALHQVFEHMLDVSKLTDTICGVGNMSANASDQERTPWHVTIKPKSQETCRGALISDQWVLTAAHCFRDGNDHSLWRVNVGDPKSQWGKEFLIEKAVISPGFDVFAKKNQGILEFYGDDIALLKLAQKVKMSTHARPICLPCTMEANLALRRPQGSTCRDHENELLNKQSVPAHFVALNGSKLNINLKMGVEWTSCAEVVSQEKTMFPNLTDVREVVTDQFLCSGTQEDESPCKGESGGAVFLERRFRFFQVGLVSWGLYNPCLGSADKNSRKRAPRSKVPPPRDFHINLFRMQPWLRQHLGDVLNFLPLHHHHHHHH"}, "human C2 R519A": {"molecular_target": "T2, human C2 R519A (human, UniProt P06681 21-752)", "T2 sequence": "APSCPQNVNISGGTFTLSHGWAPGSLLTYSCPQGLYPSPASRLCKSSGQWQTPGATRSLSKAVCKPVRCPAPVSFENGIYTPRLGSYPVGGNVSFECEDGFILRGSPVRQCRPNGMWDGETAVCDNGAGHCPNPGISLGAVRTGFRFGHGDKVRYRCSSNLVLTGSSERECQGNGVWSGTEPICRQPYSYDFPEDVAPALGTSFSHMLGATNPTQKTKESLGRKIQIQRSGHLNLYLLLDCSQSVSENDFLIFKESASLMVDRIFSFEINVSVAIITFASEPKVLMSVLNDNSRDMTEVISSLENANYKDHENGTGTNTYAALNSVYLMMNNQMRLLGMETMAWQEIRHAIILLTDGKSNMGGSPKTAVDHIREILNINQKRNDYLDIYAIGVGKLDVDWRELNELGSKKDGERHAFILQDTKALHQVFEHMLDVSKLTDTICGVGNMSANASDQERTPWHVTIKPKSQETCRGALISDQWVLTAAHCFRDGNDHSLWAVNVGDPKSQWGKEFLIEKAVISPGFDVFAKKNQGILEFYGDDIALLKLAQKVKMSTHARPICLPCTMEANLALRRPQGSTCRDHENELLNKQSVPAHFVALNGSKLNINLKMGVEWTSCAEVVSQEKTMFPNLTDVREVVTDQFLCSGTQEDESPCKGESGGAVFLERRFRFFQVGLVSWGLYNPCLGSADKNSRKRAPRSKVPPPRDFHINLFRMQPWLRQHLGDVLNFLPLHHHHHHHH"}, "human C2 M452A": {"molecular_target": "T3, human C2 M452A (human, UniProt P06681 21-752)", "T3 sequence": "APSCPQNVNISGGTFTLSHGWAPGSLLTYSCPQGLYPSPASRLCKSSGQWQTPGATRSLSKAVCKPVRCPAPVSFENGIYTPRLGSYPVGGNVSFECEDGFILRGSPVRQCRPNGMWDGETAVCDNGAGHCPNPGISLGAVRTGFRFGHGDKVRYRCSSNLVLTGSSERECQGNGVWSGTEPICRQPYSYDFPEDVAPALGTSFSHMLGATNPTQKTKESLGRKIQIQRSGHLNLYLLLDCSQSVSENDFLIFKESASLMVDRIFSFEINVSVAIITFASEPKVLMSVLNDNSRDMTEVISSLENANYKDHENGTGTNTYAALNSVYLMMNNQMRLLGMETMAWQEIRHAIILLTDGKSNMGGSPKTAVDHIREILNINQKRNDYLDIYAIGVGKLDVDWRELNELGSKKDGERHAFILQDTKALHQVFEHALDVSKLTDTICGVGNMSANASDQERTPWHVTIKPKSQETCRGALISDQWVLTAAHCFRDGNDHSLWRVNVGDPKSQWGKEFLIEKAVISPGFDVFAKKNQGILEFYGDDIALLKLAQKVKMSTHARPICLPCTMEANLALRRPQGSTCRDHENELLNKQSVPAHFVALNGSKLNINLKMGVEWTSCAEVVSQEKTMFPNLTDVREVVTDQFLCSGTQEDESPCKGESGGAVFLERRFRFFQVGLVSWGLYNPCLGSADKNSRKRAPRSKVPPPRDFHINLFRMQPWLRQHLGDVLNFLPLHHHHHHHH"}, "human C2 E267A": {"molecular_target": "T4, human C2 E267A (human, UniProt P06681 21-752)", "T4 sequence": "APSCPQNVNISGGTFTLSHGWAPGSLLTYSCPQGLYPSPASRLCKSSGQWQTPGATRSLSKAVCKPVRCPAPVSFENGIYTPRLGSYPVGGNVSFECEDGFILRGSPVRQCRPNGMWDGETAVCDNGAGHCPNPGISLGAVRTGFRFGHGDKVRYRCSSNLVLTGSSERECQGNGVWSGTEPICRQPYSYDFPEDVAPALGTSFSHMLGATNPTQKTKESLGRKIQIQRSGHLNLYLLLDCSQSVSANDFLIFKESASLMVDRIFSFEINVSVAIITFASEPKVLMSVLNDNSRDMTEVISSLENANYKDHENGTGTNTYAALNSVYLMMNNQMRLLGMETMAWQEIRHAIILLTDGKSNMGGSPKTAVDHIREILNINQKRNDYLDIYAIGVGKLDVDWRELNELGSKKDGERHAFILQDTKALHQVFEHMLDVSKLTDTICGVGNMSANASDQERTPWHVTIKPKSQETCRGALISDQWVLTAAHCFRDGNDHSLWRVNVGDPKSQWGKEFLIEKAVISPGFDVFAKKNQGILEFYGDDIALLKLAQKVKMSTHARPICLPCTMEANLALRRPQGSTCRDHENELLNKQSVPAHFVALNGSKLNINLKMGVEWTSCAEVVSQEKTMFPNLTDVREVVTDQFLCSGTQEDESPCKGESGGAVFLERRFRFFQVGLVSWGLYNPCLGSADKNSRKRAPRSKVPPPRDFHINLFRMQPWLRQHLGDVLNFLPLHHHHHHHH"}}, "data": [{"binder": "RF16-242 (antibody, human IgG4 S228P, lambda, V domains shown, pH-dependent anti-C2 antibody from a phage display library) VH: EVQLLQSGAEVKKPGESLKISCKGSGYSFTSYWIGWVRQMPGKGLEWMGIIYPGDSDTRYSPSFQGQVTISADKSISTAYLQWSSLKASDTAMYYCARRGHYGDYFDYWGQGTLVTVSS VL: SYELTQPPSVSVSPGQTARITCSGDALPKKYAYWYHQKSGQAPVLVIYEDRRRPSEIPERFSGSSSGTMATLTITGAQVEDEGVYFCYSRDRAGNQRVFGGGTQLTVLG", "values": [{"measurement": "Fold diff", "setting": "human C2 E324A", "result": 2, "unit": "fold"}, {"measurement": "Fold diff", "setting": "human C2 R519A", "result": 1, "unit": "fold"}, {"measurement": "Fold diff", "setting": "human C2 M452A", "result": 1, "unit": "fold"}, {"measurement": "Fold diff", "setting": "human C2 E267A", "result": 2, "unit": "fold"}]}]}
